Experimental findings from PMC7919409, “Crystal structures of adenylylated and unadenylylated PII protein GlnK from Corynebacterium glutamicum” (Acta Crystallographica. Section D, Structural Biology, 2021) are described below.

Data set [1] concerns the molecule itself. Nature of the data set: crystal structure; adGlnK, 1.8 Å, space group P3(2), six chains per asymmetric unit; hanging drop, 292 K, MgCl2, CaCl2, MOPS/HEPES pH 7.1, MPD, PEG 1000, PEG 3350.
Data set [2] deals with the molecule itself. Kind of data set: crystal structure; unGlnK, 2.2 Å, space group P4(3)2(1)2, one trimer per asymmetric unit; sitting drop, 292 K, 2.0 M ammonium sulfate, 5%(v/v) 2-propanol.

B1: adenylylated GlnK from Corynebacterium glutamicum (natural protein, C. glutamicum)
chain: MKLITAIVKPFTLTDIKDALEQAGVQGMTVTETQGFGQQKGHTEVYRGAEYAVDFVPKVKIEVIISDAQAEEVINIIVETARTGKVGDGKVWMTNIEELVRVRTGERGEAAL
modifications: adenylylated Tyr51 (AMP moiety covalently linked to the hydroxyl group of Tyr51); almost fully adenylylated by mass spectrometry
notes: PII protein GlnK, Corynebacterium glutamicum, UniProt Q79VF2; untagged (stop codon inserted before the Xa-Strep stretch of the vector); Homotrimer; also called adGlnK; AdGlnK
Take B1: in data set [1], the “stoichiometry N” value turned out to be 3.

B2: unmodified unadenylylated GlnK from Corynebacterium glutamicum (natural protein, C. glutamicum)
chain: SLHACRMKLITAIVKPFTLTDIKDALEQAGVQGMTVTETQGFGQQKGHTEVYRGAEYAVDFVPKVKIEVIISDAQAEEVINIIVETARTGKVGDGKVWMTNIEELVRVRTGERGEAAL
notes: not part of GlnK; PII protein GlnK, Corynebacterium glutamicum, UniProt Q79VF2; each subunit spans 112 residues; The His tag was cut off with thrombin; Homotrimer; also called unGlnK; UnGlnK; source: E. coli BL21(DE3), purified (HisTrap FF, thrombin cleavage of the His tag, Superdex 75 size-exclusion chromatography); not shown: His tag, N-terminal, cleaved
In the case of B2, the “stoichiometry N” value in data set [2] was determined as 3.

In general, stoichiometry N refers to a count of units in the complex or per binding partner.
